According to the supplement of paper PMC5998384:

Key:
[1] = test system: HeLa Kyoto; test: melting temperature (median over replicates), in situ; higher = more thermally stable
[2] = test system: HeLa Kyoto; test: solubility change mitosis vs G1/S (difference of NP-40 vs SDS log2 ratios) (log2 ratio difference); higher = more soluble in mitosis
[3] = test system: HeLa Kyoto; test: thermal stability score vs G1/S (z-score of summed log2 fold changes over temperatures); higher = more thermally stable than in G1/S
[4] = test system: HeLa Kyoto; test: solubility in G1/S (NP-40 vs SDS abundance) (log2 ratio); higher = more soluble; conditions: cell cycle stage: G1/S
[5] = cell cycle stage: early G1 (4.5 h after nocodazole release)
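Throughout, for melting temperature (median over replicates), in situ: HeLa Kyoto cells synchronized by double thymidine or nocodazole block, proteins quantified by TMT10plex mass spectrometry, three independent biological replicates.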
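Throughout, for solubility change mitosis vs G1/S (difference of NP-40 vs SDS log2 ratios): synchronized HeLa Kyoto cells (double thymidine block for G1/S, nocodazole release for mitosis), protein amounts in NP-40 versus SDS lysates quantified by mass spectrometry, three biological replicates.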
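Throughout, for solubility in G1/S (NP-40 vs SDS abundance): HeLa Kyoto cells arrested at G1/S by double thymidine block, proteins quantified by TMT10plex mass spectrometry in mild NP-40 versus SDS extracts, three biological replicates.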
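Throughout, for thermal stability score vs G1/S (z-score of summed log2 fold changes over temperatures): synchronized HeLa Kyoto cells, proteins quantified by TMT10plex mass spectrometry, three biological replicates, mitosis taken 0.5 h after nocodazole release, G1/S directly after double thymidine block.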

Sequence | melting temperature ([1]; cell cycle stage: G1/S) [°C] | melting temperature ([1]; cell cycle stage: mitosis) [°C] | solubility change mitosis (log2) [2] | thermal stability score [3, 5] | thermal stability score ([3]; cell cycle stage: mitosis) | solubility in G1/S (log2) [4]
MDVTSSSGGGGDPRQIEETKPLLGGDVSAPEGTKMGAVPCRRALLLCNGMRYKLLQEGDIQVCVIRHPRTFLSKILTSKFLRRWEPHHLTLADNSLASATPTGYMENSVSYSAIEDVQLLSWENAPKYCLQLTIPGGTVLLQAANSYLRDQWFHSLQWKKKIYKYKKVLSNPSRWEVVLKEIRTLVDMALTSPLQDDSINQAPLEIVSKLLSENTNLTTQEHENIIVAIAPLLENNHPPPDLCEFFCKHCRERPRSMVVIEVFTPVVQRILKHNMDFGKCPRLRLFTQEYILALNELNAGMEVVKKFIQSMHGPTGHCPHPRVLPNLVAVCLAAIYSCYEEFINSRDNSPSLKEIRNGCQQPCDRKPTLPLRLLHPSPDLVSQEATLSEARLKSVVVASSEIHVEVERTSTAKPALTASAGNDSEPNLIDCLMVSPACSTMSIELGPQADRTLGCYVEILKLLSDYDDWRPSLASLLQPIPFPKEALAHEKFTKELKYVIQRFAEDPRQEVHSCLLSVRAGKDGWFQLYSPGGVACDDDGELFASMVHILMGSCYKTKKFLLSLAENKLGPCMLLALRGNQTMVEILCLMLEYNIIDNNDTQLQIISTLESTDVGKRMYEQLCDRQRELKELQRKGGPTRLTLPSKSTDADLARLLSSGSFGNLENLSLAFTNVTSACAEHLIKLPSLKQLNLWSTQFGDAGLRLLSEHLTMLQVLNLCETPVTDAGLLALSSMKSLCSLNMNSTKLSADTYEDLKAKLPNLKEVDVRYTEAW [CMIP] | 50.5 | 48.7 | -0.224 | 0.861 | 0.998 | 0.271
MSEEQFGGDGAAAAATAAVGGSAGEQEGAMVAATQGAAAAAGSGAGTGGGTASGGTEGGSAESEGAKIDASKNEEDEGHSNSSPRHSEAATAQREEWKMFIGGLSWDTTKKDLKDYFSKFGEVVDCTLKLDPITGRSRGFGFVLFKESESVDKVMDQKEHKLNGKVIDPKRAKAMKTKEPVKKIFVGGLSPDTPEEKIREYFGGFGEVESIELPMDNKTNKRRGFCFITFKEEEPVKKIMEKKYHNVGLSKCEIKVAMSKEQYQQQQQWGSRGGFAGRARGRGGGPSQNWNQGYSNYWNQGYGNYGYNSQGYGGYGGYDYTGYNNYYGYGDYSNQQSGYGKVSRRGGHQNSYKPY [HNRNPD] | 55.6 | 54.9 | 0.191 | -3.11 | -2.98 | 0.068
MESAGLEQLLRELLLPDTERIRRATEQLQIVLRAPAALPALCDLLASAADPQIRQFAAVLTRRRLNTRWRRLAAEQRESLKSLILTALQRETEHCVSLSLAQLSATIFRKEGLEAWPQLLQLLQHSTHSPHSPEREMGLLLLSVVVTSRPEAFQPHHRELLRLLNETLGEVGSPGLLFYSLRTLTTMAPYLSTEDVPLARMLVPKLIMAMQTLIPIDEAKACEALEALDELLESEVPVITPYLSEVLTFCLEVARNVALGNAIRIRILCCLTFLVKVKSKALLKNRLLPPLLHTLFPIVAAEPPPGQLDPEDQDSEEEELEIELMGETPKHFAVQVVDMLALHLPPEKLCPQLMPMLEEALRSESPYQRKAGLLVLAVLSDGAGDHIRQRLLPPLLQIVCKGLEDPSQVVRNAALFALGQFSENLQPHISSYSREVMPLLLAYLKSVPLGHTHHLAKACYALENFVENLGPKVQPYLPELMECMLQLLRNPSSPRAKELAVSALGAIATAAQASLLPYFPAIMEHLREFLLTGREDLQPVQIQSLETLGVLARAVGEPMRPLAEECCQLGLGLCDQVDDPDLRRCTYSLFAALSGLMGEGLAPHLEQITTLMLLSLRSTEGIVPQYDGSSSFLLFDDESDGEEEEELMDEDVEEEDDSEISGYSVENAFFDEKEDTCAAVGEISVNTSVAFLPYMESVFEEVFKLLECPHLNVRKAAHEALGQFCCALHKACQSCPSEPNTAALQAALARVVPSYMQAVNRERERQVVMAVLEALTGVLRSCGTLTLKPPGRLAELCGVLKAVLQRKTACQDTDEEEEEEDDDQAEYDAMLLEHAGEAIPALAAAAGGDSFAPFFAGFLPLLVCKTKQGCTVAEKSFAVGTLAETIQGLGAASAQFVSRLLPVLLSTAQEADPEVRSNAIFGMGVLAEHGGHPAQEHFPKLLGLLFPLLARERHDRVRDNICGALARLLMASPTRKPEPQVLAALLHALPLKEDLEEWVTIGRLFSFLYQSSPDQVIDVAPELLRICSLILADNKIPPDTKAALLLLLTFLAKQHTDSFQAALGSLPVDKAQELQAVLGLS [IPO4] | 49.6 | 49.9 | -0.104 | 0.678 | 2.82 | -0.204
MSVQVVSAAAAAKVPEVELKDLSPSEAESQLGLSTAAVGAMAPPAGGGDPEAPAPAAERPPVPGPGSGPAAALSPAAGKVPQASAMKRSDPHHQHQRHRDGGEALVSPDGTVTEAPRTVKKQIQFADQKQEFNKRPTKIGRRSLSRSISQSSTDSYSSAASYTDSSDDETSPRDKQQKNSKGSSDFCVKNIKQAEFGRREIEIAEQEMPALMALRKRAQGEKPLAGAKIVGCTHITAQTAVLMETLGALGAQCRWAACNIYSTLNEVAAALAESGFPVFAWKGESEDDFWWCIDRCVNVEGWQPNMILDDGGDLTHWIYKKYPNMFKKIKGIVEESVTGVHRLYQLSKAGKLCVPAMNVNDSVTKQKFDNLYCCRESILDGLKRTTDMMFGGKQVVVCGYGEVGKGCCAALKAMGSIVYVTEIDPICALQACMDGFRLVKLNEVIRQVDIVITCTGNKNVVTREHLDRMKNSCIVCNMGHSNTEIDVASLRTPELTWERVRSQVDHVIWPDGKRIVLLAEGRLLNLSCSTVPTFVLSITATTQALALIELYNAPEGRYKQDVYLLPKKMDEYVASLHLPTFDAHLTELTDEQAKYLGLNKNGPFKPNYYRY [AHCYL2] | 60.1 | 57.5 | -0.0168 | -1.59 | -3.95 | -0.105
MLTTLKPFGSVSVESKMNNKAGSFFWNLRQFSTLVSTSRTMRLCCLGLCKPKIVHSNWNILNNFHNRMQSTDIIRYLFQDAFIFKSDVGFQTKGISTLTALRIERLLYAKRLFFDSKQSLVPVDKSDDELKKVNLNHEVSNEDVLTKETKPNRISSRKLSEECNSLSDVLDAFSKAPTFPSSNYFTAMWTIAKRLSDDQKRFEKRLMFSHPAFNQLCEHMMREAKIMQYKYLLFSLHAIVKLGIPQNTILVQTLLRVTQERINECDEICLSVLSTVLEAMEPCKNVHVLRTGFRILVDQQVWKIEDVFTLQVVMKCIGKDAPIALKRKLEMKALRELDRFSVLNSQHMFEVLAAMNHRSLILLDECSKVVLDNIHGCPLRIMINILQSCKDLQYHNLDLFKGLADYVAATFDIWKFRKVLFILILFENLGFRPVGLMDLFMKRIVEDPESLNMKNILSILHTYSSLNHVYKCQNKEQFVEVMASALTGYLHTISSENLLDAVYSFCLMNYFPLAPFNQLLQKDIISELLTSDDMKNAYKLHTLDTCLKLDDTVYLRDIALSLPQLPRELPSSHTNAKVAEVLSSLLGGEGHFSKDVHLPHNYHIDFEIRMDTNRNQVLPLSDVDTTSATDIQRVAVLCVSRSAYCLGSSHPRGFLAMKMRHLNAMGFHVILVNNWEMDKLEMEDAVTFLKTKIYSVEALPVAAVNVQSTQ [FASTKD2] | 51.8 | 51.1 | -0.134 | 0.322 | 0.825 | -0.17
MALLPRALSAGAGPSWRRAARAFRGFLLLLPEPAALTRALSRAMACRQEPQPQGPPPAAGAVASYDYLVIGGGSGGLASARRAAELGARAAVVESHKLGGTCVNVGCVPKKVMWNTAVHSEFMHDHADYGFPSCEGKFNWRVIKEKRDAYVSRLNAIYQNNLTKSHIEIIRGHAAFTSDPKPTIEVSGKKYTAPHILIATGGMPSTPHESQIPGASLGITSDGFFQLEELPGRSVIVGAGYIAVEMAGILSALGSKTSLMIRHDKVLRSFDSMISTNCTEELENAGVEVLKFSQVKEVKKTLSGLEVSMVTAVPGRLPVMTMIPDVDCLLWAIGRVPNTKDLSLNKLGIQTDDKGHIIVDEFQNTNVKGIYAVGDVCGKALLTPVAIAAGRKLAHRLFEYKEDSKLDYNNIPTVVFSHPPIGTVGLTEDEAIHKYGIENVKTYSTSFTPMYHAVTKRKTKCVMKMVCANKEEKVVGIHMQGLGCDEMLQGFAVAVKMGATKADFDNTVAIHPTSSEELVTLR [GSR] | 58.8 | 59.7 | -0.09 | -1.7 | -2.29 | 0.127
MFSVESLERAELCESLLTWIQTFNVDAPCQTVEDLTNGVVMAQVLQKIDPAYFDENWLNRIKTEVGDNWRLKISNLKKILKGILDYNHEILGQQINDFTLPDVNLIGEHSDAAELGRMLQLILGCAVNCEQKQEYIQAIMMMEESVQHVVMTAIQELMSKESPVSAGNDAYVDLDRQLKKTTEELNEALSAKEEIAQRCHELDMQVAALQEEKSSLLAENQVLMERLNQSDSIEDPNSPAGRRHLQLQTQLEQLQEETFRLEAAKDDYRIRCEELEKEISELRQQNDELTTLADEAQSLKDEIDVLRHSSDKVSKLEGQVESYKKKLEDLGDLRRQVKLLEEKNTMYMQNTVSLEEELRKANAARSQLETYKRQVVELQNRLSEESKKADKLDFEYKRLKEKVDSLQKEKDRLRTERDSLKETIEELRCVQAQEGQLTTQGLMPLGSQESSDSLAAEIVTPEIREKLIRLQHENKMLKLNQEGSDNEKIALLQSLLDDANLRKNELETENRLVNQRLLEVQSQVEELQKSLQDQGSKAEDSVLLKKKLEEHLEKLHEANNELQKKRAIIEDLEPRFNNSSLKIEELQEALRKKEEEMKQMEERYKKYLEKAKSVIRTLDPKQNQGAAPEIQALKNQLQERDRLFHSLEKEYEKTKSQREMEEKYIVSAWYNMGMTLHKKAAEDRLASTGSGQSFLARQRQATSSRRSYPGHVQPATAR [HOOK3] | 50.4 | 51 | -0.00542 | 0.316 | 0.85 | 0.753
MAGPGPGPGDPDEQYDFLFKLVLVGDASVGKTCVVQRFKTGAFSERQGSTIGVDFTMKTLEIQGKRVKLQIWDTAGQERFRTITQSYYRSANGAILAYDITKRSSFLSVPHWIEDVRKYAGSNIVQLLIGNKSDLSELREVSLAEAQSLAEHYDILCAIETSAKDSSNVEEAFLRVATELIMRHGGPLFSEKSPDHIQLNSKDIGEGWGCGC [RAB43] | 55.1 | 54.6 | 0.296 | -0.0567 | 0.366 | -0.224
MASLLAKDAYLQSLAKKICSHSAPEQQARTRAGKTQGSETAGPPKKKRKKTQKKFRKREEKAAEHKAKSLGEKSPAASGARRPEAAKEEAAWASSSAGNPADGLATEPESVFALDVLRQRLHEKIQEARGQGSAKELSPAALEKRRRRKQERDRKKRKRKELRAKEKARKAEEATEAQEVVEATPEGACTEPREPPGLIFNKVEVSEDEPASKAQRRKEKRQRVKGNLTPLTGRNYRQLLERLQARQSRLDELRGQDEGKAQELEAKMKWTNLLYKAEGVKIRDDERLLQEALKRKEKRRAQRQRRWEKRTAGVVEKMQQRQDRRRQNLRRKKAARAERRLLRARKKGRILPQDLERAGLV [SURF6] | 56.5 | 54.5 | 1.25 | -2.48 | -6.87 | -1.46
